Measurements reported in patent publication US6111081A, “Lactoferrin variants and uses thereof” (Baylor College of Medicine, priority 1997, dated 2000).

Experiment: pH-dependent release of 59Fe (dialysis, liquid scintillation counting)
Assay type: physicochemical
Conditions: 59Fe-saturated protein dialyzed against buffers pH 7-2, 48 hours, 4° C.; FIG. 4
Method: FIG. 4 depicts pH-dependent release of ^59 Fe from the lactoferrin amino-terminal (MN-2Y) and carboxy-terminal (MC-2Y) iron binding defective variants. ^59 Fe-saturated recombinant human lactoferrin (Rec hLF), MN-2Y and MC-2Y were dialyzed against buffers ranging in pH from 7-2. ^59 Fe remaining bound to the lactoferrin samples after dialysis was quantified by liquid scintillation counting and the Fe/protein molar ratio was determined. The data are represented as means ±S.E.M.
MN-2Y, MC-2Y and MNC-4Y (5 mg) were incubated with a four-fold excess of FeCl3 :^59 FeCl3 :NTA (400:1:8). Ward et al., 1995, Biotechnology 13:498-503. The samples were incubated at room temperature for 30 minutes. The samples were purified through NAP-10 column (Pharmacia, Piscataway, N.J.) followed by dialysis against 0.05 M Tris/HCl, 0.2 M NaCl, pH 7.0 for 12 hours to remove any non-specific iron bound to the lactoferrin variants. Iron bound to the lactoferrin variants after dialysis was quantified by liquid scintillation counting. The pH stability of iron binding for each of the lactoferrin variants was carried out as described previously. […]
The lactoferrin variants were saturated with ^59 FeCl3 and dialyzed against buffers ranging in pH from 7-2 for 48 hours at 4° C. The amount of iron remaining bound to the lactoferrin variants was quantified by liquid scintillation counting. […]

B1: recombinant lactoferrin: purified wild-type recombinant human lactoferrin expressed in Aspergillus awamori (protein, UniProt P02788 20-710, looked up)
Lactotransferrin: GRRRSVQWCAVSQPEATKCFQWQRNMRKVRGPPVSCIKRDSPIQCIQAIAENRADAVTLDGGFIYEAGLAPYKLRPVAAEVYGTERQPRTHYYAVAVVKKGGSFQLNELQGLKSCHTGLRRTAGWNVPIGTLRPFLNWTGPPEPIEAAVARFFSASCVPGADKGQFPNLCRLCAGTGENKCAFSSQEPYFSYSGAFKCLRDGAGDVAFIRESTVFEDLSDEAERDEYELLCPDNTRKPVDKFKDCHLARVPSHAVVARSVNGKEDAIWNLLRQAQEKFGKDKSPKFQLFGSPSGQKDLLFKDSAIGFSRVPPRIDSGLYLGSGYFTAIQNLRKSEEEVAARRARVVWCAVGEQELRKCNQWSGLSEGSVTCSSASTTEDCIALVLKGEADAMSLDGGYVYTAGKCGLVPVLAENYKSQQSSDPDPNCVDRPVEGYLAVAVVRRSDTSLTWNSVKGKKSCHTAVDRTAGWNIPMGLLFNQTGSCKFDEYFSQSCAPGSDPRSNLCALCIGDEQGENKCVPNSNERYYGYTGAFRCLAENAGDVAFVKDVTVLQNTDGNNNEAWAKDLKLADFALLCLDGKRKPVTEARSCHLAMAPNHAVVSRMDKVERLKQVLLHQQAKFGRNGSDCPDKFCLFQSETKNLLFNDNTECLARLHGKTTYEKYLGPQYVAGITNLKKCSTSPLLEACEFLRK
pH at which iron release begins: 5.0 | pH at which iron release is completed: 2.0
